Source: patent US20150166606A1 (RA PHARMACEUTICALS, published 2015)
Numbered stars: 1 amine (or outer) side, 2 acyl side, 3 side chain; on linkers, the order of the positions; unused ones are H or OH. Bridge positions count the residues as written; N and C are the ends. Square brackets hold non-standard residues; d marks the D form. Ends that are not written are not given here. * marks the point of attachment. mXylyl = xylyl linker from dibromoxylene joining the two cysteines; Trp(7-aza) = N[C@@H](Cc1c[nH]c2ncccc12)C(=O)O; des‑NH2 = missing amino-terminal amine group; Gly(octyl) = CCCCCCCC[C@H](N)C(=O)O; Gly(cPent) = N[C@H](C(=O)O)C1CCCC1; pXylylene = c1cc(C[*:2])ccc1C[*:1]; Gly(cPr) = N[C@H](C(=O)O)C1CC1; dPhg = N[C@@H](C(=O)O)c1ccccc1; Chg = N[C@H](C(=O)O)C1CCCCC1; Phg = N[C@H](C(=O)O)c1ccccc1; Tle = CC(C)(C)[C@H](N)C(=O)O; Tranexamic = tranexamic acid; NMeV = CN[C@H](C(=O)O)C(C)C; oXylyl = ortho-xylyl linker; NMeC = CN[C@@H](CS)C(=O)O; NMeS = CN[C@@H](CO)C(=O)O; azaTrp = not defined here; Heptanoyl = CCCCCCC(=O)*; Ac5c = NC1(C(=O)O)CCCC1; Nva = CCC[C@H](N)C(=O)O; Thp = NC1(C(=O)O)CCOCC1; Ac4c = NC1(C(=O)O)CCC1; Ac3c = NC1(C(=O)O)CC1; Aib = CC(C)(N)C(=O)O; AEA = NCCOCC(=O)O; Mpa = O=C(O)CCS

B1: R2147 (peptide)
peptide: {des‑NH2}-C[Thp]A[Chg]C[Trp(7-aza)][Tle]-NH2
modifications: linker 1-5 via mXylyl
B2: R2148 (peptide)
peptide: Heptanoyl-C[dA][NMeS][Chg]CR[Tle]-NH2
modifications: linker 1-5 via mXylyl
B3: R2154 (peptide)
peptide: XSICRV
modifications: not fully specified; [mXylyl(1,4)](2-SAc)-SICRV-NH2
B4: R2153 (peptide)
peptide: {des‑NH2}-C[Aib]A[Chg]CR-OH
modifications: linker 1-5 via mXylyl
B5: R2150 (peptide)
peptide: {des‑NH2}-C[Ac5c]A[Phg]CR[Tle]-NH2
modifications: linker 1-5 via mXylyl
B6: R2152 (peptide)
peptide: {des‑NH2}-C[Aib]A[Chg]CR-{3,3‑dimethylbutan‑2‑amine}
modifications: linker 1-5 via mXylyl
B7: R2149 (peptide)
peptide: {des‑NH2}-C[Ac5c]A[dPhg]CR[Tle]-NH2
modifications: linker 1-5 via mXylyl
B8: R2151 (peptide)
peptide: {des‑NH2}-C[AEA][Phg]CR[Tle]-NH2
modifications: linker 1-4 via mXylyl
B9: R2083 (peptide)
peptide: {des‑NH2}-C[Phg]CR[Tle]-NH2
modifications: linker 1-3 via oXylyl; not fully specified (residue 1); printed as [oXylyl(1,5)](des-NH2)C-Phg-CR-Tbg-NH2
B10: R2076 (peptide)
peptide: {des‑NH2}-CGA[Phg]CR[Tle]-NH2
modifications: linker 1-5 via mXylyl; not fully specified (residue 1); printed as [mXylyl(1,5)](des-NH2)C-GA-Phg-CR-Tbg-NH2
B11: R2087 (peptide)
peptide: MCESICRE-NH2
modifications: linker 2-6 via mXylyl
B12: R2080 (peptide)
peptide: [Mpa][code a]S[Phg]C[azaTrp][Tle]-NH2
modifications: linker 1-5 via mXylyl; reading uncertain; also: printed as [mXylyl(1,5)](des-NH2)C-a-S-Phg-C-azaTrp-Tbg-NH2
B13: R2068 (peptide)
peptide: Heptanoyl-CA[NMeS][Phg]CR[Tle]-NH2
modifications: linker 1-5 via mXylyl; not fully specified (residue 2); printed as [mXylyl(1,5)]Heptanoyl-C-a-nMeS-Phg-C-R-Tbg-NH2
B14: R2086 (peptide)
peptide: MCESICRELRYSE-NH2
modifications: linker 2-6 via mXylyl
B15: R2079 (peptide)
peptide: [Mpa][code a]A[Phg]CR[Tle]-NH2
modifications: linker 1-5 via mXylyl
B16: R2070 (peptide)
peptide: Ac-CAS[Phg]CR[Gly(cPr)]-NH2
modifications: linker 1-5 via mXylyl; not fully specified (residue 2); printed as [mXylyl(1,5)]Ac-C-a-S-Phg-CR-Cppg-NH2
B17: R2094 (peptide)
peptide: {des‑NH2}-C[Thp]A[dPhg]CR[Tle]-NH2
modifications: linker 1-5 via mXylyl
B18: R2072 (peptide)
peptide: {des‑NH2}-CAAICRV-NH2
modifications: linker 1-5 via mXylyl; not fully specified (residue 1); printed as [mXylyl(1,5)](des-NH2)C-AAICRV-NH2
B19: R2073 (peptide)
peptide: {des‑NH2}-C[Gly(octyl)]S[Phg]CR[Tle]-NH2
modifications: linker 1-5 via mXylyl; not fully specified (residue 1); printed as [mXylyl(1,5)](des-NH2)C-OctG-S-Phg-CR-Tbg-NH2
B20: R2009 (peptide)
peptide: [Nva]CESICRV-NH2
modifications: linker 2-6 via mXylyl
B21: R2096 (peptide)
peptide: {des‑NH2}-C[Ac4c]A[dPhg]CR[Tle]-NH2
modifications: linker 1-5 via mXylyl
B22: R2098 (peptide)
peptide: {des‑NH2}-C[Aib]A[dPhg]CR[Tle]LRYSE-NH2
modifications: linker 1-5 via mXylyl
B23: R2082 (peptide)
peptide: [Mpa][code a]S[Chg]CR[Tle]-NH2
modifications: linker 1-5 via mXylyl
B24: R2084 (peptide)
peptide: {des‑NH2}-C[Phg]CR[Tle]-NH2
modifications: linker 1-3 via pXylylene; not fully specified (residue 1); printed as [pXylyl(1,5)](des-NH2)C-Phg-CR-Tbg-NH2
B25: R2075 (peptide)
peptide: {des‑NH2}-CAA[Phg]CR[Tle]-NH2
modifications: linker 1-5 via mXylyl; not fully specified (residue 1); printed as [mXylyl(1,5)](des-NH2)C-AA-Phg-CR-Tbg-NH2
B26: R2078 (peptide)
peptide: {des‑NH2}-C[Aib]A[Phg]CR[Tle]-NH2
modifications: linker 1-5 via mXylyl
B27: R2074 (peptide)
peptide: MCESICR[NMeV]-NH2
modifications: linker 2-6 via mXylyl
B28: R2085 (peptide)
peptide: CESICRV-NH2
modifications: linker 1-5 via mXylyl
B29: R2095 (peptide)
peptide: {des‑NH2}-C[Thp]A[Phg]CR[Tle]-NH2
modifications: linker 1-5 via mXylyl
B30: R2091 (peptide)
peptide: {des‑NH2}-C[Aib]A[Chg]CR[Tle]-NH2
modifications: linker 1-5 via mXylyl
B31: R2008 (peptide)
peptide: Ac-MCESICRV-NH2
modifications: linker 2-6 via mXylyl
B32: R2071 (peptide)
peptide: Ac-CAS[Phg]CR[Chg]-NH2
modifications: linker 1-5 via mXylyl; not fully specified (residue 2); printed as [mXylyl(1,5)]Ac-C-a-S-Phg-CR-Chg-NH2
B33: R2099 (peptide)
peptide: {des‑NH2}-C[Aib]A[Phg]CR[Tle]LRYSE-NH2
modifications: linker 1-5 via mXylyl
B34: R2089 (peptide)
peptide: MCEYICRV-NH2
modifications: linker 2-6 via mXylyl
B35: R2093 (peptide)
peptide: {des‑NH2}-C[Ac3c]A[Phg]CR[Tle]-NH2
modifications: linker 1-5 via mXylyl
B36: R2069 (peptide)
peptide: Heptanoyl-CA[NMeS][dPhg]CR[Tle]-NH2
modifications: linker 1-5 via mXylyl; not fully specified (residue 2); printed as [mXylyl(1,5)]Heptanoyl-C-a-nMeS-(D)Phg-C-R-Tbg-NH2
B37: R2081 (peptide)
peptide: {des‑NH2}-C[Tranexamic][dPhg]CR[Tle]-NH2
modifications: linker 1-4 via mXylyl (inferred); not fully specified; printed as [mXylyl(1,5)](des-NH2)C-Tranexamic-(D)Phg-CR-Tbg-NH2
B38: R2090 (peptide)
peptide: {des‑NH2}-C[Tranexamic][Phg]CR[Tle]-NH2
modifications: linker 1-4 via mXylyl (inferred); not fully specified; printed as [mXylyl(1,5)](des-NH2)C-Tranexamic-Phg-CR-Tbg-NH2
B39: R2101 (peptide)
peptide: MCESI[NMeC]RV-NH2
modifications: linker 2-6 via mXylyl
B40: R2088 (peptide)
peptide: MCESNCRV-NH2
modifications: linker 2-6 via mXylyl
B41: R2092 (peptide)
peptide: {des‑NH2}-C[Ac3c]A[dPhg]CR[Tle]-NH2
modifications: linker 1-5 via mXylyl
B42: R2097 (peptide)
peptide: {des‑NH2}-C[Ac4c]A[Phg]CR[Tle]-NH2
modifications: linker 1-5 via mXylyl
B43: R2100 (peptide)
peptide: {des‑NH2}-C[Thp]A[Chg]CR[Tle]-NH2
modifications: linker 1-5 via mXylyl
B44: R2077 (peptide)
peptide: MCES[Gly(cPent)]CRV-NH2
modifications: linker 2-6 via mXylyl

Target: T1, Activated human plasma kallikrein (Enzyme Research Laboratories, HPKa 1303) (human, UniProt P03952 20-638)
Experiment: cell-based or functional assay

T1 sequence (P03952 20-638 limits assumed): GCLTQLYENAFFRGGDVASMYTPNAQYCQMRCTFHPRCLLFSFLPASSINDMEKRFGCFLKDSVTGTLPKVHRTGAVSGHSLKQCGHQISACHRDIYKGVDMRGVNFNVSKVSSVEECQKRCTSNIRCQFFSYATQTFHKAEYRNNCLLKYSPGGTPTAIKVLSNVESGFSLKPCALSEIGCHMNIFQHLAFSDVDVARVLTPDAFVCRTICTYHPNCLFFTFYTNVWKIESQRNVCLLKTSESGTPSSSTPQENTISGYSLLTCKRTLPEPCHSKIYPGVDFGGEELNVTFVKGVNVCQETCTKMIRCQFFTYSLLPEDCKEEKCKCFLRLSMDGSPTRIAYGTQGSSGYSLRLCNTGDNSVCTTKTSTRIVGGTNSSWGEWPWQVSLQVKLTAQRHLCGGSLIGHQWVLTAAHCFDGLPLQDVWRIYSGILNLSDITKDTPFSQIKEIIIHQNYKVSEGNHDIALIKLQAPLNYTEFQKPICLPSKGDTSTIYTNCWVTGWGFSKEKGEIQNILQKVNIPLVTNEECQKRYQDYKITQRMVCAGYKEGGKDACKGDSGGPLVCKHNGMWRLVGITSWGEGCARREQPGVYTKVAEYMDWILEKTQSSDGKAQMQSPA

Avg. IC50	Binder
> 2190 nM	B1
28.8 nM	B2
> 7930 nM	B3
> 8880 nM	B4
0.764 nM	B5
319 nM	B6
177 nM	B7
1940 nM	B8

Target: T1, Activated human plasma kallikrein …
Experiment: cell-based or functional assay
Remark: another data set of the same source

Avg. IC50	Binder
> 8900 nM	B9
11.4 nM	B10
> 16600 nM	B11
13200 nM	B12
26.8 nM	B13
8930 nM	B14
17.8 nM	B15
118 nM	B16
46.9 nM	B17
13 nM	B18
18.6 nM	B19
8.6 nM	B20
748 nM	B21
22.4 nM	B22
25.8 nM	B23
1800 nM	B24
2.6 nM	B25
2.8 nM	B26

Avg. IC50	Binder
11600 nM	B27
21.9 nM	B28
1.6 nM	B29
3.2 nM	B30
10.2 nM	B31
1920 nM	B32
0.1 nM	B33
61.9 nM	B34
10.3 nM	B35
903 nM	B36
> 10000 nM	B37
1750 nM	B38
12700 nM	B39
2040 nM	B40
3960 nM	B41
2 nM	B42
1.5 nM	B43
19.7 nM	B44
